Source: IntAct's records for PubMed 17157788

Target: aatf_human AATF (UniProt Q9NY61)
Sequence (Q9NY61 whole entry): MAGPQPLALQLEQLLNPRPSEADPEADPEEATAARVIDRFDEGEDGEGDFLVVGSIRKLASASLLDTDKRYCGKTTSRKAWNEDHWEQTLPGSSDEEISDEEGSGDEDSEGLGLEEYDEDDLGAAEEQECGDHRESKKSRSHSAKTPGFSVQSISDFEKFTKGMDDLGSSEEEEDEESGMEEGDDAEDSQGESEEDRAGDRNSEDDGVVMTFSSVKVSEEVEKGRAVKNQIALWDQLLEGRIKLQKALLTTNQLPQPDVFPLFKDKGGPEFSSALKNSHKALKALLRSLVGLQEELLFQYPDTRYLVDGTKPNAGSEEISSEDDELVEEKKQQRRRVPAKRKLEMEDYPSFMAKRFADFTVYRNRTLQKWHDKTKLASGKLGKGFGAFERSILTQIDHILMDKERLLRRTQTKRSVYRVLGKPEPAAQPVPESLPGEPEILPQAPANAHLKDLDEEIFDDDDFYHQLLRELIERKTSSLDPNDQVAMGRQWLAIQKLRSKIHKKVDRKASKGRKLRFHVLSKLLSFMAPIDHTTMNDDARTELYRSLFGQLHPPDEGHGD

Serine/threonine-protein kinase ATR (Homo sapiens), Q13535 K2327R
effect of a mutation on the interaction: disrupting interaction
